# Laboratory results from patent US6143719A, “Bradykinin analogs as selective thrombin inhibitors” (The Regents of the University of Michigan, priority 1996, dated 2000).
# Experiments:
# [1] = water solubility of synthesized peptides; format: physicochemical
# [2] = procoagulant activity of purified HK; set-up: species or system human; settings: HK purified from plasma
# Protocol: HK was purified from plasma by a modification of the procedures of Johnson et al., Thromb. Res. 48, 187 (1987) and Muller-Esterl et al., Methods Enzymol 163, 240 (1987). One hundred ml of 1 mM DFP-treated fresh frozen plasma was thawed at 37° C., to which 10 mM benzamidine-HCI, 40 μg/ml Polybrene, 2 mM EDTA, 0.2 mM PMSF, 0.2 mg/ml soybean trypsin inhibitor, 100 U/ml aprotinin and 2 M NaCl were added according to the method of Schmaier et al., Methods in Enzymology 169, 276 (1989). The treated plasma was then applied to a 2.5×20 cm column of CM-papain-SEPHAROSE 4B equilibrated in 50 mM phosphate buffer containing 2 M NaCl, 1 mM benzamidine-HCl, 40 μg/mL Polybrene, 0.2 mM PMSF, 0.02% (w/v) NaN3, pH 7.5. The CM-papain-SEPHAROSE 4B column was prepared by the procedure of Johnson et al., Thromb Res. 48, 187 (1987). HK and LK were eluted in a single peak after the addition of a 50 mM phosphate buffer solution containing 2 mM EDTA and 0.02% (w/v) NaN3, pH 11.5. Five ml fractions were collected into tubes containing 0.25 ml of a solution consisting of 4 mM PMSF in 1 M sodium acetate, pH 4.2 to bring the final pH to 6.0. The fractions containing HK and LK were then applied to a reactive Blue-Sepharose column (Sigma Chemical Corp, St. Louis, Mo.) equilibrated with 0.01 M sodium acetate pH 6.8 by the methods reported by Hasan et al., J. Biol. Chem. 269, 31822 (1994). […]
# [3] = tested on: washed platelets; assay: 125I-α-thrombin binding to platelets; set-up: species or system human; settings: 200 nM HK
# Protocol: Gel filtered platelets were placed into polypropylene tubes and diluted with Hepes-Tyrode's buffer, containing 2 mM CaCl2 and 50 μM ZnCl2 and additions, to a final concentration of 2×10^8 platelets/ml. The reaction was started by the addition of 1 nM ^125 I-α-thrombin, which was prepared by using the iodogen technique as reported by Meloni et al., J. Biol. Chem. 266, 6786 (1991). Incubations were performed at 37° C. for specified times with various additions. After incubation, 50 μl aliquots were removed in triplicate for each experimental point and placed in polypropylene microcentrifuge tubes with an extended tip containing 200 μl of an oil mixture which consisted of 1 part Apiezon A oil to 9 parts of n-butylphthalate (Gustafson et al., J. Clin. Invest. 78, 810 (1986)), and centrifuged at room temperature for 2 min at 10,900× g in a microcentrifuge. (Model E, Beckman Instruments, Palo Alto, Calif.) The supernatant was removed and the tips amputated for placement in the gamma counter. The radioactivity present in the cell pellet was determined with an LKB Rack Gamma Counter (LKB Instruments, Inc., Gaithersburg, Md.). Nonspecific binding was measured in the presence of a 100-fold molar excess of α-thrombin.
# [4] = target: α-thrombin (Homo sapiens, UniProt P00734); assay: α-thrombin cleavage of thrombin receptor peptide NAT12 (HPLC); format: biochemical; set-up: cleavage product peak 3, share of NAT12 peak 1 area / cleavage product peak 2, share of NAT12 peak 1 area: dose or concentration left out as unconfirmed
# Protocol: A further study was performed to determine whether BK analogs prevent α-thrombin from cleaving the thrombin receptor reported by Vu et al., Cell 64, 1057 (1991). A peptide, NAT12 (SEQ ID NO:2), which spans amino acids […] of the α-thrombin cleavage site on the thrombin receptor, was used to determine whether the BK analogs described herein blocked α-thrombin cleavage of the cloned receptor.
# The cleavage study was performed according to the method of Molino et al., J. Biol. Chem. 270,11168(1995),inwhichNAT12(SEQ ID NO:2) was dissolved in a solution of 0.01 M NaH2 PO4 and 0.15 M NaCl, pH 7.4. […] Following incubation, each mixture was separated by applying the mixture to a Vyadec C-18 HPLC column in 0.1% trifluoroacetic acid and eluting the mixture with a gradient from 0% to 100% of 80% MeCN and 0.1% trifluoroacetic acid. The size of the separated products were confirmed by mass spectrometry.
# [5] = tested on: human platelets; format: cell-based; settings: FIG. 2, concentration not given
# Protocol: The cytoplasmic free Ca^2+ concentration ([Ca^2+ ]i) was measured using the fluorescent Ca^2 + indicator fura-2 (Molecular Probes, Inc., Eugene, Oreg.). Gel filtered platelets in Hepes-Tyrode's buffer were loaded with fura-2 by incubation at 37° C. with 1 μM fura-2/acetoxymethyl ester for 45 min according to the method of Rasmussen et al., J. Biol. Chem. 268, 14322 (1993). The labeled platelets were then re-gel filtered to remove any excess probe. Aliquots of the labeled platelet suspension were transferred into a quartz cuvette with a magnetic stirrer, which was then placed in a thermostatically controlled chamber at 37° C. in a fluorescence spectrophotometer (Dual Wave Length Shimazdu SP5000 Spectrofluorometer, Shimazdu USA, Pittsburgh, Pa.). Reagents were directly added to the cuvette. The excitation wave lengths varied between 340 and 380 nm. The fluorescence was measured by recording emitted light at 510 nm as reported by Fisher et al, Mol. Pharm. 35, 195 (1989). The minimum emission was determined on a 20 mM digitonin, 10 mM EGTA solubilized platelet sample; maximum emission was determined on the same sample with 10 mM Ca^2+ added. The intraplatelet free Ca^2+ concentration was calculated by the method of Grykiewicz et al., J. Biol. Chem. 260, 3440 (1985). The ratio of the fluorescence readings was calculated as R=340/380 nm and processed according to the equation [Ca^2+ ]i =KD ((R-Rmin)/Rmax -R))(Sf2 /Sb2) to determine the intraplatelet free Ca^2+ concentration. The KD for fura-2 was assumed to be 224 nM. Rmax and Rmin are the maximum and minimum fluorescence ratios measured at the end of the experiment, respectively; Sf2 and Sb2 are the fluorescence values at 380 nm in the absence and presence of saturating [Ca^2+ ], respectively.
"cleavage product peak 2, share of NAT12 peak 1 area [4] [%]","cleavage product peak 3, share of NAT12 peak 1 area [4] [%]",reduction of NAT12 peak 1 area after α-thrombin ([4]; 8 nM α-thrombin) [%],Molecule,water solubility [1],specific activity (procoagulant activity) [2],inhibition of 125I-α-thrombin binding to platelets [3],inhibition of α-thrombin-induced calcium mobilization [5]
,,,"SEQ ID NO:15: synthesized hydrophobic peptide, sequence not printed (NATFYFKIDNVKKARVQVVAGKKYFI)",hydrophobic requiring 0.01% DMSO in order to solubilize it,,,
14,18,32,"HK: human high molecular weight kininogen purified from plasma (protein, UniProt P01042 19-644, looked up, high molecular weight kininogen) Kininogen-1: QESQSEEIDCNDKDLFKAVDAALKKYNSQNQSNNQFVLYRITEATKTVGSDTFYSFKYEIKEGDCPVQSGKTWQDCEYKDAAKAATGECTATVGKRSSTKFSVATQTCQITPAEGPVVTAQYDCLGCVHPISTQSPDLEPILRHGIQYFNNNTQHSSLFMLNEVKRAQRQVVAGLNFRITYSIVQTNCSKENFLFLTPDCKSLWNGDTGECTDNAYIDIQLRIASFSQNCDIYPGKDFVQPPTKICVGCPRDIPTNSPELEETLTHTITKLNAENNATFYFKIDNVKKARVQVVAGKKYFIDFVARETTCSKESNEELTESCETKKLGQSLDCNAEVYVVPWEKKIYPTVNCQPLGMISLMKRPPGFSPFRSSRIGEIKEETTVSPPHTSMAPAQDEERDSGKEQGHTRRHDWGHEKQRKHNLGHGHKHERDQGHGHQRGHGLGHGHEQQHGLGHGHKFKLDDDLEHQGGHVLDHGHKHKHGHGHGKHKNKGKKNGKHNGWKTEHLASSSEDSTTPSAQTQEKTEGPTPIPSLAKPGVTVTFSDFQDSDLIATMMPPISPAPIQSDDDWIPDIQIDPNGLSFNPISDFPDTTSPKCPGRPWKSVSEINPTTQMKESYYFDLTDGLS",,11-22 U/mg,able to inhibit,inhibited
